In publication PMC6742648, “A potent broadly neutralizing human RSV antibody targets conserved site IV of the fusion glycoprotein” (Nature Communications, 2019):

Experiments:
[1] = target: T1, stabilized pre-fusion RSV F glycoprotein (DS-Cav1) (Human respiratory syncytial virus A, …, stabilised); assay: cell-based or functional assay
[2] = target: T2, post-fusion RSV F glycoprotein (F∆FP) (Human respiratory syncytial virus A, …, stabilised); assay: SPR; Biacore T200; Synagis antibody on Protein A chip captures 50 RU post-fusion F; RB1 Fab flowed in two-fold dilutions 200-3.12 nM, 40 s dissociation; 1:1 Langmuir fit; settings: both partners purified
T2 construct: RSV fusion (F) glycoprotein, soluble post-fusion form F∆FP; post-fusion F structure PDB 3RRR; also called post-fusion F protein; RSV F post-Fusion; source: Expi293F, transfected, purified from culture supernatant (Ni-Sepharose, Strep-Tactin, thrombin digestion, Superdex 200)

[3] = target: T1, stabilized pre-fusion RSV F …; assay: SPR; Biacore T200; D25 antibody on Protein A chip captures 50 RU DS-Cav1; RB1 Fab flowed in two-fold dilutions 0.31-20 nM, 50 ul/min; 1:1 Langmuir fit; settings: both partners purified

Binder | microneutralization of RSV A (Long) on HEp-2 cells, IC50 (F on the virus, strain Long) [1] [ng/mL] | microneutralization of RSV B (Washington) on HEp-2 cells, IC50 (F on the virus, subtype B strain) [1] [ng/mL] | Kd [2] [nM] | koff [2] [s⁻¹] | kon [2] [M⁻¹ s⁻¹] | Kd [3] [nM] | koff [3] [s⁻¹] | kon [3] [M⁻¹ s⁻¹]
RB1, fully human IgG1 monoclonal antibody (antibody, V domains shown) VH: EVQLVESGGGLVRPGRSLRLSCTVSGFSFDDSAMSWVRQAPGKGLEWISFIKSKTYGGTKEYAASVKGRFTISRDDSKNIAYLQMNSLKTEDTAVYYCTRGAPYGGNSDYYYGLDVWGQGTTVTVSS VL: DIQMTQSPSSLSASVGDRVTITCRTSQDVRGALAWYQQKPGKAPKLLIFDASSLETGVPSRFSGSGSGTVFTLTISSLQPEDFAAYYCQQFLDFPFTFGQGTRLEIK | 2.9 | 1.7 | – | – | – | – | – | –
RB1 fragment antigen-binding (Fab) (Fab, V domains shown, Fab heavy chain of RB1 (VH as the heavy chain of m1, plus CH1 of human IgG1 up to the cleavage site); light chain of RB1, as the light chain of m1; The preparation of the Fab is told for the crystallisation; also called RB1 Fab; monovalent RB1 Fab; source: RB1 mAb (CHO-3E7, Protein A purified) cleaved into monovalent Fab with the Fab Preparation Kit (Pierce)) VH: EVQLVESGGGLVRPGRSLRLSCTVSGFSFDDSAMSWVRQAPGKGLEWISFIKSKTYGGTKEYAASVKGRFTISRDDSKNIAYLQMNSLKTEDTAVYYCTRGAPYGGNSDYYYGLDVWGQGTTVTVSS VL: DIQMTQSPSSLSASVGDRVTITCRTSQDVRGALAWYQQKPGKAPKLLIFDASSLETGVPSRFSGSGSGTVFTLTISSLQPEDFAAYYCQQFLDFPFTFGQGTRLEIK | – | – | 135 | 0.15 | 1.12e+06 | 0.022 | 0.000164 | 7.35e+06
